Data taken from PMC5240623.
Each block holds one substance with its values, some of them ahead of it.

Experiments:
[1] = target: DmMBD2/3 coiled-coil domain (amino acids 309–339), thioredoxin fusion (D. melanogaster); assay: ITC; fusion peptides left uncleaved; 50 mM Hepes pH 7.4, 150 mM NaCl, 298 K; MicroCal Auto-iTC200, 20–24 injections; HsMBD2 (1.8 mM), EmGATAD2A/B (2.74 mM), DmGATAD2A/B (2.5 mM) injected into HsGATAD2A (100 μM), EmMBD2/3 (270 μM), DmMBD2/3 (250 μM); one-site binding model
[2] = system: EmMBD2/3a coiled-coil domain (amino acids 324–354), thioredoxin fusion; assay: AUC; sedimentation velocity, 40,000 rpm, 293 K, 20 mM Tris pH 8.0, 150 mM NaCl; thioredoxin fusions left uncleaved; each peptide in isolation and a 100 μM mixture
[3] = target: EmMBD2/3a coiled-coil domain (amino acids 324–354), thioredoxin fusion (E. muelleri); assay: ITC; fusion peptides left uncleaved; 50 mM Hepes pH 7.4, 150 mM NaCl, 298 K; MicroCal Auto-iTC200, 20–24 injections; HsMBD2 (1.8 mM), EmGATAD2A/B (2.74 mM), DmGATAD2A/B (2.5 mM) injected into HsGATAD2A (100 μM), EmMBD2/3 (270 μM), DmMBD2/3 (250 μM); one-site binding model
[4] = target: HsGATAD2A coiled-coil domain, uncleaved fusion peptide (human) (UniProt Q86YP4); assay: as above
[5] = system: EmMBD2/3 MBD (Ephydatia muelleri); assay: SPR; conditions: SPR: 10 mM HEPES pH 7.4, 50 mM NaCl, 3 mM MgCl2, 0.1 mM EDTA, 1 mM DTT, 0.05% polysorbate 20, temperature not stated, NMR conditions not in material
[6] = target: EmGATAD2A/B coiled-coil domain (amino acids 58–100), thioredoxin fusion (E. muelleri); assay: ITC; fusion peptides left uncleaved; 50 mM Hepes pH 7.4, 150 mM NaCl, 298 K; MicroCal Auto-iTC200, 20–24 injections; HsMBD2 (1.8 mM), EmGATAD2A/B (2.74 mM), DmGATAD2A/B (2.5 mM) injected into HsGATAD2A (100 μM), EmMBD2/3 (270 μM), DmMBD2/3 (250 μM); one-site binding model

HsGATAD2A coiled-coil domain, uncleaved fusion peptide (human), sequence (Q86YP4 137-178): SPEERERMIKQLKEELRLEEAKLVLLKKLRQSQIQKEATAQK
DmMBD2/3 coiled-coil domain (amino acids 309–339), thioredoxin fusion (D. melanogaster), sequence (main, as listed by the source): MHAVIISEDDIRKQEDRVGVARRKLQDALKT
HsMBD2 coiled-coil domain, uncleaved fusion peptide, sequence (Q9UBB5 360-393): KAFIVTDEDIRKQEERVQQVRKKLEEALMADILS

Substance: EmGATAD2A/B coiled-coil domain (amino acids 58–100), thioredoxin fusion
percent of heterodimeric species in a 100 μM mixture [2]: heterodimeric (45.1 kDa, 58.1%)

Substance: GAGGCGCTCGGCGGCAG (double strand) [CpG(x3) 17 bp, 3'-biotin]
Kd [5]: 65 µM

Substance: GAGGCGCTCGGCGGCAG (double strand) [mCpG 17 bp, 3'-biotin]
Kd ([5]; 5-methyl-C at C9 of strand 1 and C8 of strand 2 (central CpG), two other CpGs unmethylated): 0.43 µM

More lines, now with the values ahead:

Kd [1]: 7.4 µM | dH [1]: -27.6 kcal/mol | stoichiometry N [1]: 1
Substance: DmGATAD2A/B coiled-coil domain (amino acids 183–223), thioredoxin fusion (domain or fragment)

Kd [3]: 9.2 µM | dH [3]: -9.8 kcal/mol | stoichiometry N [3]: 0.8
Substance: EmGATAD2A/B coiled-coil domain (amino acids 58–100), thioredoxin fusion (domain or fragment)

Kd [4]: 0.38 µM | dH [4]: -8.99 kcal/mol | stoichiometry N [4]: 1.3
Substance: EmMBD2/3a coiled-coil domain (amino acids 324–354), thioredoxin fusion (domain or fragment)

Kd [6]: 1.3 µM | dH [6]: -8.92 kcal/mol | stoichiometry N [6]: 1.1
Substance: HsMBD2 coiled-coil domain, uncleaved fusion peptide (from UniProt Q9UBB5 360-393) (domain or fragment)
